Experimental data from the supplement of paper PMC7125110.
± gives the standard error. This sample holds only a part of the variants without activity.

B1: glmS ribozyme (parent)
chain: AUAAAAGCGCCAGAACUACAGAAAUGUAGUUGACGAGGAGGAGGUUUAUCGAAUUUUCGGCGGAUGCCUCCAAA

Variants of: B1
Assay: self-cleavage kobs at 10000 uM GlcN6P; higher = faster cleavage; RNA array
Conditions: with glucosamine-6-phosphate
Procedure, shortened: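 Over ~14 h at 37 °C, tiles were imaged as glucosamine-6-phosphate (40 μM to 10 mM) in HEPES/KCl/Mg(OAc)2 buffer flowed across sequenced MiSeq chips. The chips carried barcoded ribozyme variants transcribed in situ by E. coli RNA polymerase and tracked with a hybridised Cy3 probe. After normalisation to baseline and to non-cleaving reference variants, one- or two-exponential decay fits of per-tile medians gave kobs. kcat and KM followed from weighted Michaelis–Menten fits across concentrations.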

Variant	self-cleavage kobs at 10000 uM GlcN6P [s⁻¹]
A33C G44A A48U	< 1e-05
C11U A12G A14G G26U	0.00104 ± 0.00024
A15U G60U G62C	< 1e-05
C16U A39C A53G	0.00494 ± 0.0011
C16G G43U C68U	0.0002 ± 4.7e-05
A14C G32U U65G	0.000125 ± 3e-05
G29A A33C G41C C70U	< 1e-05
A12G G13C G35A	< 1e-05
G32C G66A	7.35e-05 ± 1.4e-05
A15G G35A U57G G62A	< 1e-05
A33G A48C C50U C70G	< 1e-05
C10U G60U A64U	< 1e-05
C10G G29A U65C	< 1e-05
C11U A36C G43U	< 1e-05
C11U G29C C71U	0.000101 ± 1.9e-05
A14U A53U C68U	0.00114 ± 0.00036
A15G U31C G38C G63A	< 1e-05
G29A G32U C50A C68G	0.000193 ± 6e-05
A12C G29A A36G	< 1e-05
G35C U45G U47A U65C	< 1e-05
G13A G38A A64G	< 1e-05

Variant	self-cleavage kobs at 10000 uM GlcN6P [s⁻¹]
A15G G66U C70A	8.77e-05 ± 1.7e-05
A36G A48G C70A	< 1e-05
C10U G38U G63C C70U	< 1e-05
G13U G37A C50U U69A	< 1e-05
G13C G29U G66A C71U	3.46e-05 ± 1.2e-05
C10U C34A G41U	< 1e-05
A15G G66C C68U	0.000127 ± 2.6e-05
A36G G44U A53C	< 1e-05
A33U C50G C61A C70U	6e-05 ± 1.8e-05
C10U C58U G59C	< 1e-05
C11U C34G G38A	< 1e-05
A12C G29C A39U	0.000876 ± 0.0002
C11U A12G C50U	< 1e-05
A14C U65C C71U	4.99e-05 ± 2.1e-05
A12C G41A C67A	7.76e-05 ± 2.9e-05
A28G A52U A53G	9e-05 ± 1.6e-05
C16G G35C C58U	< 1e-05
C11G U30A G59C	0.000168 ± 3.9e-05
A12U A48C U49C C50A C68U	< 1e-05
A14G U56C U69C	0.000368 ± 9.1e-05
G29A U30C G60A	< 1e-05

Variant	self-cleavage kobs at 10000 uM GlcN6P [s⁻¹]
C34G G59C C61A A64G	< 1e-05
A36G A42C G59U	< 1e-05
A14U G40C U56A A64G	8.64e-05 ± 2.9e-05
C11A U47G	5.18e-05 ± 1.5e-05
C16A U45G A64G	0.000258 ± 5.1e-05
G13U G43U A64U	< 1e-05
A12G U30G U55G	5.43e-05 ± 1.3e-05
U31A C61G C71U	< 1e-05
A12G G43U G60C	< 1e-05
C11A G35C G41C	< 1e-05
G29C C50G C61G C71U	8.93e-05 ± 2.1e-05
A12U U54C G59U A64C	< 1e-05
A12U A15U U57G	3.38e-05 ± 1.4e-05
C16G A42G C71U	0.00126 ± 0.00039
G13U G37A G40U	< 1e-05
A24C G29C	0.00129 ± 0.00026
G13U A14C C58G	7.6e-05 ± 1.7e-05
C11A U30C A39C G59U	0.000272 ± 6.2e-05
G13A C71A	0.000168 ± 3.3e-05
A15U G37A U47A C67G C70G	< 1e-05
C11A C16A G66C C70G	6.24e-05 ± 2.5e-05

Variant	self-cleavage kobs at 10000 uM GlcN6P [s⁻¹]
G13A C50G C70G	9.61e-05 ± 2e-05
A14G A36C A42U	< 1e-05
U30C G32A G66A	0.001 ± 0.00026
A12U A14U G29A	0.00021 ± 4.5e-05
G29C G44A U47C U49G U57G G60C C68U C70G	< 1e-05
C11A A12U A14C	8.7e-05 ± 1.9e-05
U31A U49A U65C C67G	< 1e-05
C16U A33G A36C U57G C58G	7.07e-05 ± 2e-05
C11G G32U A39C	< 1e-05
U30C A53G G66A	8.63e-05 ± 2.1e-05
A12U C50G A52C C70G	7.94e-05 ± 2.3e-05
A15U G32C C71U	8.58e-05 ± 2e-05
A14U U49C C70A	< 1e-05
G29C A36G G60C U69G	< 1e-05
A33G U47A C70U	< 1e-05
G29U U54A C68U	0.000427 ± 0.00018
A15C C16G U65G	0.000462 ± 8e-05
C16U U46C C58G C61G	5.92e-05 ± 2.1e-05
C16U G43C A64C C71G	< 1e-05
A12U G29C A33U	4.02e-05 ± 1.2e-05
